For 2 molecules, binding result and Kd results are on record in PMC4075976 (Nature structural & molecular biology, 2008).

Where no end group is shown, it is not given here.

A word on the Kd: it is the concentration at which binding is half-saturated.

The target of assay [1] is full length 6xHis tagged p53 (human, UniProt P04637 1-393). As to the kind of experiment: pull-down.
The target in another assay is UBE2D2/UbcH5b (UniProt P62837 1-147). As to the kind of experiment: NMR titration.

Chain of full length 6xHis tagged p53 (P04637 whole entry): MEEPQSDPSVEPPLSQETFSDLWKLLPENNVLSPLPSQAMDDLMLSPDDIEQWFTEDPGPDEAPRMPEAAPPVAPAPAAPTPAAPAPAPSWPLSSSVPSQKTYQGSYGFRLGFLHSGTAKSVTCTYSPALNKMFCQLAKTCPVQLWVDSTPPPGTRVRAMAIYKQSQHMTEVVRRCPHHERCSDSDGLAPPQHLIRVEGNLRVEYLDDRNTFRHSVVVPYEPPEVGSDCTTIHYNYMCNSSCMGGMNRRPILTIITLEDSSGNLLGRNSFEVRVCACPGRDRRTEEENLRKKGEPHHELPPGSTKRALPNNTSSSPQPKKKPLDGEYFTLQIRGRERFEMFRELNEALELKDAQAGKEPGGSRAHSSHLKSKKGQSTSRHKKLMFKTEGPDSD

B1: GST-Pirh2 NTD (domain or fragment, human, UniProt Q96PM5 1-137, looked up)
chain: MAATAREDGASGQERGQRGCEHYDRGCLLKAPCCDKLYTCRLCHDNNEDHQLDRFKVKEVQCINCEKIQHAQQTCEECSTLFGEYYCDICHLFDKDKKQYHCENCGICRIGPKEDFFHCLKCNLCLAMNLQGRHKCI
Turning to B1, the binding result in assay [1] is reported as “binds”.

B2: Pirh2 RING domain (GST removed) (domain or fragment)
chain: ENVSRQNCPICLEDIHTSRVVAHVLPCGHLLHRTCYEEMLKEGYRCPLCMHS
modifications: cysteine pairing not given here; also: 2 Zn ions bound
As to B2, in the assay with UBE2D2/UbcH5b, the Kd was about 200 µM.
